The target of this test is T1, MLO-Y4 cell surface proteins (Mus musculus, UniProt E9PW83).
T1 construct: endogenous in cells; host or cells: MLO-Y4
T1 sequence (E9PW83 1-1143): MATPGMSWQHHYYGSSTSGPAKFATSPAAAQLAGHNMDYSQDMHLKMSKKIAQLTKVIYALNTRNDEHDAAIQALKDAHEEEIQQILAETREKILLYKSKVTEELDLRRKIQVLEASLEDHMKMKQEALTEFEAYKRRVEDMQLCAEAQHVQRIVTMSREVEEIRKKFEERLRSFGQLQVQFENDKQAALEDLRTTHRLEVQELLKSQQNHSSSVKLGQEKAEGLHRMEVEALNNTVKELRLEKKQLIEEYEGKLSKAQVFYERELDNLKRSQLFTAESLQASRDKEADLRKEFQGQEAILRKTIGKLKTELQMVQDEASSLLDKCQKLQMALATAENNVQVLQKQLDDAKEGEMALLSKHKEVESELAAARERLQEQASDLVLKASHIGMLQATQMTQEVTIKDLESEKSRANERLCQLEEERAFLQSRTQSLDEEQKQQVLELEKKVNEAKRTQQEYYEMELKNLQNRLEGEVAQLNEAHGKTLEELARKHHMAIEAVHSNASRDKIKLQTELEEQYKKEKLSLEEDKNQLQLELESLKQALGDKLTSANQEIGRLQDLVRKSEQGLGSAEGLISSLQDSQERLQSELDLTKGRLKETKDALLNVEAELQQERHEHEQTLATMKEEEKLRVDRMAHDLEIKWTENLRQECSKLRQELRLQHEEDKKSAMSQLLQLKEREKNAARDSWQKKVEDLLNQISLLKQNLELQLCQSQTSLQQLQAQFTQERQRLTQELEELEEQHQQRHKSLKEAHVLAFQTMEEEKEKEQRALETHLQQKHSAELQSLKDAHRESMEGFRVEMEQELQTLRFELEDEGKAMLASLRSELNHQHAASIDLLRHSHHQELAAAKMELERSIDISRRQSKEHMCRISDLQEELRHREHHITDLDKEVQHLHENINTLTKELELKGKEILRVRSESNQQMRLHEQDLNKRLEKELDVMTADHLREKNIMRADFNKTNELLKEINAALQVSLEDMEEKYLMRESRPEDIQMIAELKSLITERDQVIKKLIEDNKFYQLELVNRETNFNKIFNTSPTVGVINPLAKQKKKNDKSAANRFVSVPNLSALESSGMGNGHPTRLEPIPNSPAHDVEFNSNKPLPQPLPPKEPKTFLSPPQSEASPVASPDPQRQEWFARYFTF
The experiment in a line: Crosslinking/co-immunoprecipitation/mass spectrometry (TMT quantitative proteomics) to identify irisin receptors. The conditions noted are these: co-precipitated protein Fam184a (E9PW83_MOUSE). It counts as binding. As for the experimental part: MLO-Y4 cells were seeded on 30×150 mm type-I collagen coated dishes as described in cell culture experiment. At 60% cell density, medium was switched to FreeStyle™ 293 Expression medium. After 4 hours incubation, the cells were chilled on ice for 10 minutes, followed by treatment of 10 nM his-tag irisin or his-tag adipsin for 20 minutes. The cells were then incubated with 1.5 mM DTSSP for 30 minutes on ice to do cross-linking, after washing with 15 ml cold PBS twice. The cross-linking was quenched by addition of a final concentration of 20 mM Tris-pH 7.5. The cells were then harvested and homogenized in 1 ml RIPA buffer containing proteaseinhibitor cocktailand phosphatase-inhibitor cocktail. Whole-cell lysates were homogenized by 10 times passages through a 22G needle fitted to a 3 ml syringe. Homogenized samples were rotated gently in cold room for 20 minutes followed by 15,000×g centrifugation for 10 minutes. After addition of a final concentration of 10 mM imidazole, supernatants were incubated with 100 μl Ni-NTA agarose for 1 hour. After centrifugation at 500×g for 1 minute, the supernatants were aspirated and 1 ml cold RIPA buffer containing 10 mM imidazole were added to the agarose. After 10 minutes rotation in cold room, the supernatants were aspirated and 1 ml cold RIPA buffer containing 30 mM imidazole were added to the agarose. After repeating the washing 3 times, 0.8 ml RIPA buffer containing 250 mM imidazole was added and the agarose was gently rotated in a cold room for 20 minutes. After centrifugation at 1000×g for 2 minutes, the supernatants were transferred to 1.5 ml tube and incubated with 100 μl 0.2% sodium deoxycholate and 100 μl 10% trichloroacetic acid in ice for 1 hour. After centrifugation at 12,000×g for 10 minutes at 4° C., the supernatants were removed and 1 ml cold acetone was added to the pellets followed by vortexing for 10 seconds. After one more washing with cold acetone, the pellets were dried at 37° C., and 39 μl PBS and 13 μl 4×NuPAGE LDS were added to the pellets with a final concentration of 5 mM DTT. Solubilized proteins were incubated at 65° C. for 20 minutes followed by incubation with a final concentration of 14 mM iodoacetamide for 45 minutes in the dark. 38 μl samples were loaded to 4-12% gradient SDS-PAGE for separation followed by Coomassie Blue staining. The gels were submitted to quantitative proteomics.
For in-gel digestions, gels were stained with Coomassie Blue and were excised into 8 equal segments for control and irisin lanes. Gel pieces were destained and dehydrated with 100% acetonitrile, vacuumed dried, and digested in 25 mM HEPES (pH 8.5) with 500 ng sequencing grade trypsin (Promega) and incubated for an overnight at 37° C. (Shevchenko et al. (1996) Anal. Chem. 68:850-858). Digests were treated with 1% formic acid and purified using C18 Stage-Tips as previously described (Rappsilber et al. (2007) Nat. Protoc. 2:1896-1906). Peptides were eluted with 70% acetonitrile and 1% formic acid, then dried using a speedvac. Isobaric labeling of digested peptides was accomplished using 6-plex tandem mass tag (TMT) reagents (Thermo Fisher Scientific, Rockford, Ill.). Reagents, 5.0 mg, were dissolved in 252 μl acetonitrile (ACN) and 5 μl of the solution was added to the digested peptides dissolved in 25 μl of 200 mM HEPES, pH 8.5. After 1 hour at room temperature, the reaction was quenched by adding 1 μl of 5% hydroxylamine. Labeled peptides were combined and acidified prior to C18 Stage-Tips desalting.
All LC-MS/MS experiments were performed on an Orbitrap Fusion™ Lumos mass spectrometer (Thermo Fisher Scientific, San Jose, Calif., USA) coupled with a Proxeon EASY-nLC™ 1200 LC pump (Thermo Fisher Scientific). Peptides were separated on a 100 μm inner diameter microcapillary column packed with 35 cm of Accucore™ C18 resin (1.8 μm, 100 Å, Thermo Fisher Scientific). […]

B1: irisin: secreted cleaved form of FNDC5; recombinant human/mouse irisin with C-terminal his tag produced in HEK293 cells (protein)
chain: DSPSAPVNVTVRHLKANSAVVSWDVLEDEVVIGFAISQQKKDVRMLRFIQEVNTTTRSCALWDLEEDTEYIVHVQAISIQGQSPASEPVLFKTPREAEKMASKNKDEVTMKE
modifications: left off: small tags and cut ends
notes: secreted cleaved form of FNDC5; recombinant human/mouse irisin with C-terminal his tag produced in HEK293 cells
Turning to B1, the TMT signal-to-noise ratio is reported as 8.102 and the “irisin/adipsin TMT signal-to-noise ratio” value is reported as 0.009.

Values taken from patent US20210063414A1, “METHODS FOR PREVENTING AND/OR TREATING BONE LOSS CONDITIONS BY MODULATING IRISIN” (Dana-Farber Cancer Institute, Inc., priority 2018, published 2021).
